Assay results reported in article PMC12258035, “AcABI5a integrates abscisic acid signaling to developmentally modulate fruit ascorbic acid biosynthesis in kiwifruit”.

T1: AcABI5a-His (Actinidia chinensis? (cv. 'Donghong'), UniProt A0A2R6QW13 1-413)
T1 sequence: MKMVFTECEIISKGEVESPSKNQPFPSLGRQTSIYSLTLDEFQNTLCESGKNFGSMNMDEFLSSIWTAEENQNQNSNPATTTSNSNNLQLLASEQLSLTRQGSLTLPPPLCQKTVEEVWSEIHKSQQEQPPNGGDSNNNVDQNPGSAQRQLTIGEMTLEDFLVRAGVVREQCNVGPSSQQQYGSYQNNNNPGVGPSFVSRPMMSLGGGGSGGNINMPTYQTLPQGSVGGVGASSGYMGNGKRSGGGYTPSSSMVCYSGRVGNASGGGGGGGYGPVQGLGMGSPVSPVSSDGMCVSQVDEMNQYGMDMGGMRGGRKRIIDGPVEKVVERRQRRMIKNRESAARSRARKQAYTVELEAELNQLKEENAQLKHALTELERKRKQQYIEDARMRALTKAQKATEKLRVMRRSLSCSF

B1: AcMYBS1 promoter G-box probe (dsDNA)
DNA 1: ATATTTTGTTATACGTGTTAGAAGTTCA
DNA 2: TGAACTTCTAACACGTATAACAAAATAT
B2: AcABI5a promoter mutant probe (dsDNA)
DNA 1: GCACCCTTGTAAAAAAAAAATTGTAAGA
DNA 2: TCTTACAATTTTTTTTTTACAAGGGTGC
B3: AcMYBS1 mutant probe (dsDNA)
DNA 1: ATATTTTGTTAAAAAAATTAGAAGTTCA
DNA 2: TGAACTTCTAATTTTTTTAACAAAATAT
B4: AcABI5a promoter G-box probe (dsDNA)
DNA 1: GCACCCTTGTAGACGTGAAATTGTAAGA
DNA 2: TCTTACAATTTCACGTCTACAAGGGTGC

Tests used:
[1] = biological target: T1, AcABI5a-His; assay: EMSA; unlabeled competitor weakens the band; EMSA in polyacrylamide gels with FAM probes; buffer, salt, pH and temperature not stated (refers to Hou et al. [71]); conditions: protein: recombinant; tags: 6xHis at N- and C-terminus (pET-32a); fusion 65 kDa; chain copies: 2; label: FAM (on F strand); blunt
[2] = biological target: T1, AcABI5a-His; assay: EMSA; EMSA in polyacrylamide gels with FAM probes; buffer, salt, pH and temperature not stated (refers to Hou et al. [71]); conditions: protein: recombinant; tags: 6xHis at N- and C-terminus (pET-32a); fusion 65 kDa; chain copies: 2; label: FAM (on F strand); blunt

Binder | binding result [1] | binding result [2]
B1 | binds | 
B2 |  | no binding
B3 |  | no binding
B4 | binds | 
